Consider two molecules from article PMC9456098, “Crystal Structure of the Recombination Mediator Protein RecO from Campylobacter jejuni and Its Interaction with DNA and a Zinc Ion”.

The subject of data set [1] is cjSSB (Campylobacter jejuni (strain ATCC 33291?)). Briefly: fluorescence polarization. Conditions: FP: 20 mM Tris pH 8.0, 30 mM NaCl, 5 mM beta-mercaptoethanol, 0.8 nM fluorescein-ssDNA; temperature not stated; one-site model.
A further data set has as its target T1, cjRecO (Campylobacter jejuni subsp. jejuni ATCC …, UniProt Q0PC17 1-204).
T1 sequence: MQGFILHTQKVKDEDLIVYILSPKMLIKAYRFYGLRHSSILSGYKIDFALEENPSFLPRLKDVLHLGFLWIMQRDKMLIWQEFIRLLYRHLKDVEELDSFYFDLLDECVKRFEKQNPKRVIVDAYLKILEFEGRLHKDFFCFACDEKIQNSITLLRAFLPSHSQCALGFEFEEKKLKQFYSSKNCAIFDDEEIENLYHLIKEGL
Briefly: fluorescence polarization; no saturation up to 100 uM; binding detectable from ~1 uM; Kd stated as at least 20 uM; FP: 20 mM Tris pH 8.0, 30 mM NaCl, 5 mM beta-mercaptoethanol, 0.8 nM fluorescein-ssDNA; temperature not stated; one-site model. Particulars: protein: recombinant; tags: N-terminal His6 removed by thrombin (tag-free); single strand.

Take “TTATAGGCATATAGGAGTAATTTTCTTGGGCTATGCAGTA [40-mer ssDNA]”: in data set [1], the equilibrium dissociation constant (Kd) amounted to 21.4 nM.

B1: 40-mer ssDNA (ssDNA)
DNA: TTATAGGCATATAGGAGTAATTTTCTTGGGCTATGCAGTA
For the molecule B1, in the data set with cjRecO, the Kd is more than 20000 nM.
